Data reported in patent publication US20250092426, “CAS ENDONUCLEASES AND RELATED METHODS” (Flagship Pioneering Innovations VII, LLC, published 2025).

Target: T1, CasEnd-37 (synthetic construct)
T1 chain: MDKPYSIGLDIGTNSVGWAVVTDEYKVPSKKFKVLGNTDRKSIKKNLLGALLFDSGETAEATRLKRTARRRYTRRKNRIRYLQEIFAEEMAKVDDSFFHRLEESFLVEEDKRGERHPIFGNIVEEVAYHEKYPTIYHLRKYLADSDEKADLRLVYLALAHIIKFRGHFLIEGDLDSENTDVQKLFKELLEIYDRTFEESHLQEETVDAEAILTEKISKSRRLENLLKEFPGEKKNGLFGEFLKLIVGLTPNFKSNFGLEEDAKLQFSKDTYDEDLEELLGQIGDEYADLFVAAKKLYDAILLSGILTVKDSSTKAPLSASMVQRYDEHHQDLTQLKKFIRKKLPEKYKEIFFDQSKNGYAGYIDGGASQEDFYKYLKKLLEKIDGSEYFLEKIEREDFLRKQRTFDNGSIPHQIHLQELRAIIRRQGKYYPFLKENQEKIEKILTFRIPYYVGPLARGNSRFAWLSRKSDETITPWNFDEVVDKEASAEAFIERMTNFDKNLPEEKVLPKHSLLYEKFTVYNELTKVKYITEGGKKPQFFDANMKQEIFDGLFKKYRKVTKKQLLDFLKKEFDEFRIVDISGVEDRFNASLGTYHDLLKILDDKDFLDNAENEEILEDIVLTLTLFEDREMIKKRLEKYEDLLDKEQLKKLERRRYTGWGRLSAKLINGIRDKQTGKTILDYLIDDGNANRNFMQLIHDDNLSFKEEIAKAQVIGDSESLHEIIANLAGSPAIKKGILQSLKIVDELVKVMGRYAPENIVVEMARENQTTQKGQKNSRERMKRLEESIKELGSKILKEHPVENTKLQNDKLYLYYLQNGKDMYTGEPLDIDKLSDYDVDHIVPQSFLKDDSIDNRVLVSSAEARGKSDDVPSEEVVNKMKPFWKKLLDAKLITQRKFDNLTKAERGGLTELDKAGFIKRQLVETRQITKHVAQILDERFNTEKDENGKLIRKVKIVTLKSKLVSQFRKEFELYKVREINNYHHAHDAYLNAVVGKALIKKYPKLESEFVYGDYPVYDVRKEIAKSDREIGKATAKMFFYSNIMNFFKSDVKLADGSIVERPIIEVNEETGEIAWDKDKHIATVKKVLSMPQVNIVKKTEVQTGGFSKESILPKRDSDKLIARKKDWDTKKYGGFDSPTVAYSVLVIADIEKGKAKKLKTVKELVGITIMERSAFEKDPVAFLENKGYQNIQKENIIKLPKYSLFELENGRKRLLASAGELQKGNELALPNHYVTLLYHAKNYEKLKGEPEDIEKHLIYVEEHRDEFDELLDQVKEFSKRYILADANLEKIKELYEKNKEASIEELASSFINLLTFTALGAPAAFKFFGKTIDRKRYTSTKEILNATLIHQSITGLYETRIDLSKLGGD
Assay: cell_activity; +++; HEK293T; PAM not stated
Description: The ability of the candidate endonucleases, including endonucleases 1-38 (CasEnds 1-38) (set forth in Table 1 and SEQ ID NOS: 1-38, respectively), to mediate target nucleic acid editing was assessed utilizing a blue fluorescent protein (BFP) to green fluorescent protein (GFP) conversion assay, wherein programmed nucleotide editing of the BFP gene was measured by the expression of GFP (signifying the conversion of […] via the programmed nucleotide edit in the BFP gene). The conversion assay was conducted utilizing the reverse transcriptase-based system (as described above in Example 2) comprising a template RNA (designed to convert BFP to GFP) and a fusion protein comprising a retroviral reverse transcriptase and the individual subject Cas endonuclease. The amino acid sequence of the base portion of the fusion protein (without the individual subject Cas endonuclease) is set forth in Table 7 (SEQ ID NO: 43).
Briefly, 200 ng of plasmid DNA encoding the subject fusion protein (containing one of the subject CasEnds) and 200 ng of template RNA (in plasmid format) were added to 25 μL SF buffer containing 250,000 HEK293T BFP-expressing cells. Nucleofection was mediated utilizing program DS-150. The day of nucleofection was marked as day 0. At day 4, the cells were harvested and analyzed by flow cytometry to assess the level of BFP and GFP expression in HEK293T cells. Cells having GFP signal were defined as having undergone a successful editing event, and the percent of cells that were GFP+ on day 4 was used to determine the performance of each Cas endonuclease.

B1: BFP-to-GFP template RNA ; BFP reporter protospacer (ssRNA ; dsDNA)
RNA: GCCGAAGCACUGCACGCCGUGUUUUAGAGCUAGAAAUAGCAAGUUAAAAUAAGGCUAGUCCGUUAUCAACUUGAAAAAGUGGCACCGAGUCGGUGCACCCUGACGUACGGCGUGCAGUGCUU
DNA 1: GCCGAAGCACTGCACGCCGT
DNA 2: ACGGCGTGCAGTGCTTCGGC
  activity: ≥ 100 % of reference
